Molecular target: HHLA2 (recombinant, SPR analyte) (human, UniProt Q9UM44 23-414)
Test: SPR

B1: KIR3DL3 (recombinant, coupled to the streptavidin sensor chip) (receptor)
chain: QDKPFLSAWPGTVVSEGQHVTLQCRSRLGFNEFSLSKEDGMPVPELYNRIFRNSFLMGPVTPAHAGTYRCCSSHPHSPTGWSAPSNPVVIMVTGVHRKPSLLAHPGPLVKSGETVILQCWSDVRFERFLLHREGITEDPLRLVGQLHDAGSQVNYSMGPMTPALAGTYRCFGSVTHLPYELSAPSDPLDIVVVGLYGKPSLSAQPGPTVQAGENVTLSCSSRSLFDIYHLSREAEAGELRLTAVLRVNGTFQANFPLGPVTHGGNYRCFGSFRALPHAWSDPSDPLPVSVTGNSRHL
Work on B1 yielded a Kd of 48.9 µM.

From PMC10360443 (Science immunology, 2023)
